Measurements taken from PMC3749527.

Molecular target: Respiratory syncytial virus nucleoprotein N, R234A mutant (human respiratory syncytial virus) (UniProt P03418)

For “Respiratory syncytial virus nucleoprotein N, R234A mutant (from UniProt P03418 1-391) (natural protein)”, the polymerase activity (viral RNA synthesis) in an HRSV plasmid-based minigenome luciferase assay in BSRT7/5 cells, compared to wt N was 68 % of wt N.
